Patent publication US20100172900A1 (Bristol-Myers Squibb, published 2010)

T1: ICOS-Ig (human, UniProt Q9Y6W8)
T1 construct: extracellular domain
T1 sequence (fusion chain, looked up): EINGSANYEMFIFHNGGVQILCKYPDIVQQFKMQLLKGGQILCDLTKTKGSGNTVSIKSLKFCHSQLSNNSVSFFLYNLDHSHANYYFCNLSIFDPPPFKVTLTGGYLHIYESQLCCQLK


Experiments:
[1] = target: T2, recombinant human BTLA fusion protein (human, UniProt Q7Z6A9 31-156); assay: Biacore, BTLA fusion protein coupled to CM5 chip, antibody flowed at 267 nM
T2 construct: also called BTLA-Ig; BTLA Ig antigen; not shown: Ig fusion partner
T2 sequence (Q7Z6A9 other isoform, or with tags, fused parts or gaps): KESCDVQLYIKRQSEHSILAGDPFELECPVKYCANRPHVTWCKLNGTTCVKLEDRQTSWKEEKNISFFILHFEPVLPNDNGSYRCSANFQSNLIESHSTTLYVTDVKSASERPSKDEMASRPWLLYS
Description: Anti-BTLA antibodies were characterized for affinities and binding kinetics by Biacore analysis (Biacore AB, Uppsala, Sweden). Purified recombinant human BTLA fusion protein was covalently linked to a CM5 chip (carboxy methyl dextran coated chip) via primary amines, using standard amine coupling chemistry and kit provided by Biacore. Binding was measured by flowing the antibodies in HBS EP buffer (provided by Biacore AB) at a concentration of 267 nM at a flow rate of 50 μl/min. The antigen-antibody association kinetics was followed for 3 minutes and the dissociation kinetics was followed for 7 minutes. The association and dissociation curves were fit to a 1:1 Langmuir binding model using BIAevaluation software (Biacore AB). To minimize the effects of avidity in the estimation of the binding constants, only the initial segment of data corresponding to association and dissociation phases were used for fitting.

[2] = target: T2, recombinant human BTLA fusion protein; assay: Biacore 3000, antibody captured by anti-CH1, BTLA fusion protein 200 nM in solution
Description: The binding of the 1B4, E4H9, 3C2, 6A5, 11E2 and 10116 antibodies to recombinant BTLA protein was examined by BIAcore™ using an antibody capture method. Each of the six anti-BTLA monoclonal antibodies were captured using anti-CH1, a reagent antibody that is specific towards the heavy chain constant region 1 of human antibody (Zymed, Clone HP6045, Stock conc. 1.0 mg/mL). Anti-CH1 was coated on a CM5 chip (BR-1000-14, Research Grade) at high density (6200-7960 RUs). The coating was carried out based on the standard immobilization procedure recommended by the manufacturer. The 1B4, E4H9, 3C2, 6A5, 11E2 and 10116 purified antibodies, with concentrations ranging from 1-10 μg/mL, were each then captured on the anti-CH1 coated chip surface at a flow-rate of 10 μl/min for 0.5-1 minute. A single concentration of recombinant human BTLA fusion protein (200 nM) was injected over captured antibody for 4 minutes at a flow rate of […]. The antigen was allowed to dissociate for 10 minutes. The chip surface was regenerated after each cycle with 10 μL of 30 mM NaOH, followed by 30 μl of HBS EP wash. Isotype controls were run on the chip, and the data used to subtract non-specific binding. All the experiments were carried out on a Biacore 3000 surface plasmon resonance instrument, using BIAcore Control software v 3.2. Data analysis was carried out using BiaEvaluation v3.2 software.

[3] = target: PD1-Ig; assay: ELISA, plate coated with receptor-Ig fusion, antibody at 1 ug/mL, HRP-conjugated detection antibody
PD1-Ig, sequence (chain, as listed by the source limits assumed): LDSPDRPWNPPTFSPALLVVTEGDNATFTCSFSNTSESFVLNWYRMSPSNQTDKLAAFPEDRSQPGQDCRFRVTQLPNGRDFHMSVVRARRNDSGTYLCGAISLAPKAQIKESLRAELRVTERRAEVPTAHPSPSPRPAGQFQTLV
Description: (§1) ELISA plates were coated overnight with fusion proteins consisting of the extracellular domains of a panel of CD28 receptor family molecules fused to the Fc portion of human IgG (Table 4). The plates were washed and blocked to minimize non-specific binding. A panel of anti-BTLA antibodies and isotype control antibodies (Table 5), and positive control detection antibodies (Table 3), all diluted to 1 ug/mL, were added in duplicate to the assay plates for one hour. After extensive washing the appropriate HRP-conjugated detection antibodies were added to the plates for one hour followed by washing and development using 3, 3′, 5, 5′-tetramethylbenzidine (TMB) as substrate. Optical density measurements at 650 nm were recorded.

[4] = target: T3, CD28-Ig (human, UniProt P10747); assay: as above
T3 construct: extracellular domain
Description: as §1

[5] = target: T4, CTLA4-Ig (human, UniProt P16410); assay: as above
T4 construct: extracellular domain
T4 sequence (P16410 36-161): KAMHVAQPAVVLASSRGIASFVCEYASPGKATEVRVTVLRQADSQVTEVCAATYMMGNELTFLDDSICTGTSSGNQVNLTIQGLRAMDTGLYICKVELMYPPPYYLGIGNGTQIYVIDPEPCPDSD
Description: as §1

[6] = target: T1, ICOS-Ig; assay: as above
Description: as §1

[7] = target: T5, TrkB-Ig (human, UniProt Q16620); assay: as above
T5 construct: extracellular domain
Description: as §1

[8] = target: T6, recombinant human BTLA expressed at the cell surface of CHO cells (human, UniProt Q7Z6A9 31-289); assay: flow cytometry on BTLA-transfected CHO cells, PE anti-human IgG detection, MFI against log nM IgG
T6 construct: also called BTLA-CHO cells; BTLA CHO cells
T6 sequence (Q7Z6A9 31-289 R157S limits assumed): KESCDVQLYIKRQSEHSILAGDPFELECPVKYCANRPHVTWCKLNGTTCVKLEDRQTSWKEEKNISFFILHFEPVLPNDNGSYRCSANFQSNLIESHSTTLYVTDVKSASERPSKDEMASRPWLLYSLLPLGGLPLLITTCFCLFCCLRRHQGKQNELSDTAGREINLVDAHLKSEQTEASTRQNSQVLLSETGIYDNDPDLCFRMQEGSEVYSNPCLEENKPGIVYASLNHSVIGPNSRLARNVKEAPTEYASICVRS
Description: Chinese hamster ovary (CHO) cell lines that express recombinant human BTLA at the cell surface were developed and used to determine the specificity of BTLA human monoclonal antibodies by flow cytometry. CHO cells were transfected with expression plasmids containing full length cDNA encoding transmembrane forms of BTLA. Binding of the anti-BTLA human monoclonal antibodies was assessed by incubating the transfected cells with the anti-BTLA human monoclonal antibodies at a concentration from 0.01 nM to 66 nM. The antibodies were incubated with 10⁵ BTLA CHO cells for 60 minutes at 4° C. in PBS1% BSA. […] The EC₅₀ was determined graphically by plotting the mean flourescence intensity (MFI) versus the log of the antibody concentration using Prism graphing software (GraphPad software). Flow cytometric analyses were performed using a FACSArray flow cytometry (Becton Dickinson, San Jose, Calif.). The results are depicted in FIG. 28A.

[9] = target: T6, recombinant human BTLA expressed at the …; assay: FACS blocking assay: antibody pre-incubated with BTLA-CHO cells, then 0.5 ug/ml biotin HVEM Ig, streptavidin-PE detection
Description: The ability of BTLA Mabs to block binding of BTLA to HVEM was also determined by FACS, and is expressed as the concentration of anti-BTLA IgG to block half the maximal binding of HVEM Ig to 10⁵ BTLA CHO cells (IC₅₀). BTLA CHO cells and antibody at various concentrations were pre-incubated for 30 minutes at 4° C., and then 0.5 ug/ml biotin labeled HVEM Ig (R & D Systems BAF 356) was added to the BTLA CHO-IgG mix and incubated for another 30 minutes. Cells were washed 2× in PBS-1% BSA, and binding of biotin HVEM Ig was detected by FACS after staining the cells with streptavidin-PE (BD Parmingen 3554061). IC₅₀ values were determined graphically using the Prism software (GraphPad Software). Results are depicted in FIG. 28B and FIG. 28C.

Row | Binder | Kd [1] [nM] | Kd [2] [nM] | koff [2] [s⁻¹] | kon [2] [M⁻¹ s⁻¹] | binding result [3] | binding result [4] | binding result [5] | binding result [6] | binding result [7] | EC50 [8] [nM] | IC50 [9] [nM]
1 | 3C2 human monoclonal antibody (antibody, IgG1, V domains shown) VH: QVQLQESGPGLVKPSETLSLTCTISGGSISNYYWNWIRQPPGKGLEWIGYIYYSTSTKYNPSLKSRVTMSVETSKNQFSLKLSSVTAADTAVYYCARVKVYSTGWFFDYWGQGTLVTVSS VL: AIQLTQSPSSLSASVGDRVTITCRASQGISSALAWYQQKPGKAPKLLIYDASSLESGVPSRFSGSGSGTDFTLTISSLQPEDFATYYCQQFNSYPLTFGGGTKVEIK | 0.88 | 6.65 | 0.000301 | 45200 | no binding (tested: 1 ug/mL) | no binding (tested: 1 ug/mL) | no binding (tested: 1 ug/mL) | no binding (tested: 1 ug/mL) | no binding (tested: 1 ug/mL) | 1.78 | 1.97
2 | 1B4 human monoclonal antibody (antibody, IgG1, V domains shown, human antibody purified from hybridoma, kappa light chain (VK A27)) VH: QITLKESGPTLVKPTQTLTLTCTFSGFSLNTIGVGVNWIRQPPGKALEWLALIYWDDDKRYSPSLKRRLTISKDTSKNQVVLTMTNMDPVDTATYYCAHSGITEVRGVIIHYYGMDVWGQGTTVTVSS VL: not shown | 2.88 | 5.74 | 0.000284 | 49400 | no binding (tested: 1 ug/mL) |  | no binding (tested: 1 ug/mL) |  | no binding (tested: 1 ug/mL) | 1.34 | 1.9
3 | 11-E8D9 (antibody, V domains shown, also called 11E8D9.3; E8D9 human monoclonal antibody) VH: QITLKESGPTLVKPTQTLTLTCTFSGFSLSTSGVGVGWIRQPPGKALEWLALIYWDDDKRYSPSLKSRLTITKDTSKNQVVLTMTNMDPVDTATYYCAHTSITEVRGAIIYYYGMDVWGQGTTVTVSS VL: not shown |  |  |  |  | no binding (tested: 1 ug/mL) |  | no binding (tested: 1 ug/mL) |  | no binding (tested: 1 ug/mL) | 0.373 | 0.34
4 | E4H9 human monoclonal antibody (antibody, V domains shown, kappa light chain (VK A27)) VH: QVTLRESGPALVKPTQTLTLTCTFSGFSLSTSGMCVSWIRQPPGKALEWLALIDWDDVKYYSSSLKTRLTISKDTSKNQVVLTMTDMDPVDTATYYCARIRFTMFRGVYYYYYGLDVWGQGTTVTVSS VL: not shown | 0.13 | 0.006 | 3e-07 | 45700 | no binding (tested: 1 ug/mL) |  | no binding (tested: 1 ug/mL) |  | no binding (tested: 1 ug/mL) | 1.55 | 1.05

More lines, now with the values ahead:

Row | Kd [1] [nM] | Kd [2] [nM] | koff [2] [s⁻¹] | kon [2] [M⁻¹ s⁻¹] | binding result [3] | binding result [4] | binding result [5] | binding result [6] | binding result [7] | EC50 [8] [nM] | IC50 [9] [nM] | Binder
5 | 0.61 |  |  |  | no binding (tested: 1 ug/mL) | no binding (tested: 1 ug/mL) | no binding (tested: 1 ug/mL) | no binding (tested: 1 ug/mL) | no binding (tested: 1 ug/mL) | 3.25 | 2.73 | 11E2 human monoclonal antibody (antibody, IgG1, V domains shown, kappa light chain (VK L15)) VH: EVQLVESGGGVIRPGGSLRLSCAASGFTFDDYGMSWVRQAPGKGLEWVSGINWNGGSTGYAASVKGRFTISRDNAKNSLYLQMNSLRAEDSALYYCARDYYYGPGSPNYFYYAMDVWGQGTTVTVSS VL: DIQMTQSPSSLSASVGDRVTITCRASQGISSWLAWYQQKPEKAPKSLIYAASSLQSGVPSRFSGSGSGTDFTLTISSLQPEDFATYYCQQYNSYPRTFGQGTKVEIK
6 |  |  |  |  | no binding (tested: 1 ug/mL) |  | no binding (tested: 1 ug/mL) |  | no binding (tested: 1 ug/mL) |  |  | 6A5 human monoclonal antibody (antibody, V domains shown, kappa light chain (VK A27)) VH: QITLKESGPTLVKPTQTLTLTCTFSGFSLSTSGVGVGWIRQPPGKALEWLALIYWDDDKRYSPSLKSRLTITKDTSKNQVVLTMANMDPVDTATYYCAHIRITEVRGVIISYYGMDVWGQGTTVTVSS VL: not shown
7 |  |  |  |  |  |  |  |  |  | 1.56 | 1.02 | 11-4C9 (antibody, V domains shown, The prefix 11- appears only on the sheets; also called 4C9 human monoclonal antibody) VH: QITLKESGPTLVKPTQTLTLTCTFSGFSLSTSGVGVAWIRQPPGKALEWLALIYWDDDKRYSPSLKSRLTITKDTSKNQVVLTMSNMDPVDTATYYCAHTRIAEVRGVIYYYYGIDVWGQGTTVTVSS VL: EIVLTQSPGTLSLSPGERATLSCRASQSVSSTYLVWYQQKPGQAPRLLIYGASSRATGIPDRFSGSGSGTDFTLTISRLEPEDFAVYYCQQYGSSWTFGQGTKVEIK
8 |  | 3.82 | 0.000153 | 40000 |  |  |  |  |  | 1.89 | 2.13 | 10H6 human monoclonal antibody (antibody, V domains shown) VH: QVQLVESGGGVVQPGRSLRLSCAASGFTFSSYDMHWVRQAPGKGLEWVAAIWNDGSNKYYADSVKGRFTISRDNSKNTLYLQMNSLRAEDTAVYYCARDRITMVRGVITQYYGMDVWGQGTTVTVSS VL: DIQLTQSPSSLSASVGDRVTITCRVSQGISSYLNWYRQKPGKVPKLLIYSASNLQSGVPSRFSGSGSGTDFTLTISSLQPEDVATYYGQRTYNAPYTFGQGTKLEIK
